Reference: IntAct's records for PubMed 9425168

B1: Focal adhesion kinase 1 (Gallus gallus (Chicken)), Q00944 (parent)
chain: MAAAYLDPNLNHTPSSSAKTHLGTGMERSPGAMERVLKVFHYFENSSEPTTWASIIRHGDATDVRGIIQKIVDCHKVKNVACYGLRLSHLQSEEVHWLHLDMGVSNVREKFELAHPPEEWKYELRIRYLPKGFLNQFTEDKPTLNFFYQQVKNDYMLEIADQVDQEIALKLGCLEIRRSYGEMRGNALEKKSNYEVLEKDVGLRRFFPKSLLDSVKAKTLRKLIQQTFRQFANLNREESILKFFEILSPVYRFDKECFKCALGSSWIISVELAIGPEEGISYLTDKGANPTHLADFNQVQTIQYSNSEDKDRKGMLQLKIAGAPEPLTVTAPSLTIAENMADLIDGYCRLVNGATQSFIIRPQKEGERALPSIPKLANNEKQGVRSHTVSVSETDDYAEIIDEEDTYTMPSTRDYEIQRERIELGRCIGEGQFGDVHQGIYMSPENPAMAVAIKTCKNCTSDSVREKFLQEALTMRQFDHPHIVKLIGVITENPVWIIMELCTLGELRSFLQVRKFSLDLASLILYAYQLSTALAYLESKRFVHRDIAARNVLVSATDCVKLGDFGLSRYMEDSTYYKASKGKLPIKWMAPESINFRRFTSASDVWMFGVCMWEILMHGVKPFQGVKNNDVIGRIENGERLPMPPNCPPTLYSLMTKCWAYDPSRRPRFTELKAQLSTILEEEKLQQEERMRMESRRQVTVSWDSGGSDEAPPKPSRPGYPSPRSSEGFYPSPQHMVQPNHYQVSGYSGSHGIPAMAGSIYPGQASLLDQTDSWNHRPQEVSAWQPNMEDSGTLDVRGMGQVLPTHLMEERLIRQQQEMEEDQRWLEKEERFLVMKPDVRLSRGSIEREDGGLQGPAGNQHIYQPVGKPDHAAPPKKPPRPGAPHLGSLASLNSPVDSYNEGVKIKPQEISPPPTANLDRSNDKVYENVTGLVKAVIEMSSKIQPAPPEEYVPMVKEVGLALRTLLATVDESLPVLPASTHREIEMAQKLLNSDLAELINKMKLAQQYVMTSLQQEYKKQMLTAAHALAVDAKNLLDVIDQARLKMISQSRPH

Variants of: B1
Settings: with src_chick SRC

| effect of a mutation on the interaction | Variant |
| --- | --- |
| disrupting interaction | Y397F |

Variants of: B1
Settings: with Src

| effect of a mutation on the interaction | Variant |
| --- | --- |
| decreasing interaction | Y397F |
